Experiments:
Test in all cases: FRET titration
Gal4 = settings: EMSA: 5 nM nucleosome, 130 mM NaCl, 10% glycerol, 10 mM Tris-HCl pH 8, 0.005% Tween 20, 0.5x TE, room temperature 3 min, 5% native PAGE in 0.3x TTE, FRET: 5 nM …
MeCP2 (human) = settings: EMSA: 5 nM nucleosome, 130 mM NaCl, 10% glycerol, 10 mM Tris-HCl pH 8, 0.005% Tween 20, 0.5x TE, room temperature 3 min, 5% native PAGE in 0.3x TTE; FRET: 5 nM …
histone H1 (Drosophila) = settings: EMSA: 5 nM nucleosome, 130 mM NaCl, 10% glycerol, 10 mM Tris-HCl pH 8, 0.005% Tween 20, 0.5x TE, room temperature 3 min, 5% native PAGE in 0.3x TTE; FRET: 5 nM …

Substance “601 mononucleosome with Gal4 site, 247 bp (FRET construct)” has a K half (Gal4; no CAP, 5 nM nucleosome, Hill coefficient -3.76 ± 2.16) of 3.06 nM, a K half (Gal4; nucleosome prebound with 25 nM MeCP2, Hill coefficient -1.47 ± 0.22) of 12.2 nM and a K half (MeCP2 (human)) of 20.7 nM. It also gave a K half (histone H1 (Drosophila)) of 12.1 nM.

From paper PMC5021983
